Data from article PMC12624782 (The Journal of Biological Chemistry, 2025).

Columns and labels:
TaGST-10 [1] = target: T1, TaGST-10 (Triticum aestivum, UniProt A0A3B5XZG4); test: LC-MS/MS of DON-13-GSH formation, […] DON, apparent specific activity; format: biochemical; parameters: gene LOC123049460; N-His6-SUMO-TaGST-10, IMAC and size-exclusion purified
T1 sequence (A0A3B5XZG4 1-234): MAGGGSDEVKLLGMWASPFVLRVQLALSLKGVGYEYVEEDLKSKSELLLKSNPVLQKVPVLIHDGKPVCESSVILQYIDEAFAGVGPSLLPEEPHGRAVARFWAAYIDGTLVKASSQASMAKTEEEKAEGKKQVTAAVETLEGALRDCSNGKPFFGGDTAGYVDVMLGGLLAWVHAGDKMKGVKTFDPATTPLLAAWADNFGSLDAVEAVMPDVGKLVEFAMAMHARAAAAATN

TaGST-10 [2] = target: T1, TaGST-10; test: co-crystal structure, […] Å; format: binding; parameters: gene LOC123049460; TaGST-10 after TEV removal of the N-His6-MBP tag; dimer in the asymmetric unit
purified protein [3] = substrate: N[C@@H](CCC(=O)N[C@@H](CS)C(=O)NCC(=O)O)C(=O)O; test: purified protein; format: biochemical, Triticum aestivum; details: G-site in the N-terminal domain; pH 6.5; 20.0 °C
purified protein [4] = substrate: S=C=NCCc1ccccc1; test: purified protein; format: biochemical, Triticum aestivum; details: GSH; pH 6.5; 20.0 °C
purified protein [5] = substrate: C=C(CC)C(=O)c1ccc(OCC(=O)O)c(Cl)c1Cl; test: purified protein; details: GSH; pH 6.5; 20.0 °C

For `CC1=C[C@H]2O[C@@H]3[C@H](O)C[C@](C)([C@@]2(CO)[C@H](O)C1=O)[C@]31CO1` [DON, deoxynivalenol], the “LC-MS/MS of DON-13-GSH formation, 5 mM DON, apparent specific activity” value (TaGST-10 [1]) was 6.3 10^−5 ± 0.4 10^−5.

`CC1=C[C@H]2O[C@@H]3[C@H](O)C[C@](C)([C@]24CO[C@@]1(O)[C@H]4O)[C@]3(O)CSC[C@H](NC(=O)CC[C@H](N)C(=O)O)C(=O)NCC(=O)O` (mixture of isomers) [DON-13-GSH] was tested, and the “co-crystal structure, 2.3 Å” value (TaGST-10 [2]) was “TaGST-10 crystallized as a dimer in the asymmetric unit and contained a molecule of DON-13-GSH in each active site”.

B1: TaGST-10 (Triticum aestivum) (protein)
chain: MAGGGSDEVKLLGMWASPFVLRVQLALSLKGVGYEYVEEDLKSKSELLLKSNPVLQKVPVLIHDGKPVCESSVILQYIDEAFAGVGPSLLPEEPHGRAVARFWAAYIDGTLVKASSQASMAKTEEEKAEGKKQVTAAVETLEGALRDCSNGKPFFGGDTAGYVDVMLGGLLAWVHAGDKMKGVKTFDPATTPLLAAWADNFGSLDAVEAVMPDVGKLVEFAMAMHARAAAAATN
notes: N-His6-MBP-TaGST-10 (full-length fusion)
Molecule B1 has a K0.5 (purified protein [3]) of 0.46 ± 0.01 mM, a K0.5 (purified protein [4]) of 0.041 ± 0.004 mM and a kcat (purified protein [4]) of 2 s⁻¹. For the same molecule, the kcat/Km (purified protein [4]) was 47000 M⁻¹ s⁻¹, the K0.5 (purified protein [5]) was 0.023 ± 0.003 mM and the kcat (purified protein [5]) was 0.13 s⁻¹. For the same molecule, the kcat/Km (purified protein [5]) was 5500 M⁻¹ s⁻¹.
